# Patent US20240165282A1, “CONFORMATIONAL CONSTRAINED SOMATOSTATIN RECEPTOR 3 PEPTIDE LIGANDS AND THEIR CONJUGATES AND USES THEREOF” (STARGET PHARMA LTD., priority 2021, published 2024)
# *1 amine or outer side, *2 acyl side, *3 side chain or, on linkers, in order; H or OH if unused. Bridges are numbered along the chain shown (N, C = ends). [ ]: non-standard residue; d: D form. The star is where a group is joined. DOTA = O=C(O)CN1CCN(CC(=O)O)CCN(CC(=O)*)CCN(CC(=O)O)CC1; N(2-mercaptoethyl)Gly = O=C(CN(CCS[*:3])[*:1])[*:2]
# Legend:
# Experiment in all cases: cell-based or functional assay
# [1] = target: CCR4 (human) (UniProt P51679)
# [2] = target: CHRM3 (human) (UniProt P20309)
# [3] = target: CCR1 (human) (UniProt P32246)
# [4] = target: PTGER4 (human) (UniProt P35408)
# [5] = target: HTR5A (human) (UniProt P47898)
# [6] = target: CHRM2 (human) (UniProt P08172)
# [7] = target: PTGFR (human) (UniProt P43088)
# [8] = target: CCR10 (human) (UniProt P46092)
# [9] = target: P2RY11 (human) (UniProt Q96G91)
# [10] = target: KISS1R (human) (UniProt Q969F8)
# [11] = target: GALR2 (human) (UniProt O43603)
# [12] = target: DRD2L (human) (UniProt P14416)
# [13] = target: EDG6 (human) (UniProt O95977)
# [14] = target: PTAFR (human) (UniProt P25105)
# [15] = target: CRHR1 (human) (UniProt P34998)
# [16] = target: GIPR (human) (UniProt P48546)
# [17] = target: OPRD1 (human) (UniProt P41143)
# [18] = target: CCR5 (human) (UniProt P51681)
# [19] = target: GLP1R (human) (UniProt P43220)
# [20] = target: EDNRA (human) (UniProt P25101)
# [21] = target: PPYR1 (human) (UniProt P50391)
# [22] = target: PTHR2 (human) (UniProt P49190)
# [23] = target: BRS3 (human) (UniProt P32247)
# [24] = target: EDG1 (human) (UniProt P21453)
# [25] = target: human cloned somatostatin receptor 2 (human) (UniProt P30874)
# [26] = target: CXCR4 (human) (UniProt P61073)
# [27] = target: NTSR1 (human) (UniProt P30989)
# [28] = target: NPFFR1 (human) (UniProt Q9GZQ6)
# Sequence of NPFFR1 (human) (Q9GZQ6 whole entry): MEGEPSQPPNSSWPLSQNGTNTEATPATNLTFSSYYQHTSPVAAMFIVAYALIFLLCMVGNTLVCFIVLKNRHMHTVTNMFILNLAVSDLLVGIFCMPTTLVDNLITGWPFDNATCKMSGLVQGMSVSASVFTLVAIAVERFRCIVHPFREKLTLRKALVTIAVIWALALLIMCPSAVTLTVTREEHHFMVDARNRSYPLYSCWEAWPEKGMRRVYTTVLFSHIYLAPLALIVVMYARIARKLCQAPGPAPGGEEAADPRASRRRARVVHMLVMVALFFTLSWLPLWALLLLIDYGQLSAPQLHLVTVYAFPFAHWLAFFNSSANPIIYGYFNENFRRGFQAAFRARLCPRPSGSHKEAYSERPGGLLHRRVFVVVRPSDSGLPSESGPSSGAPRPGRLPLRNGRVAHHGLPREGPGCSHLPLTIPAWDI
# [29] = target: MC1R (human) (UniProt Q01726)
# Sequence of MC1R (human) (Q01726 whole entry): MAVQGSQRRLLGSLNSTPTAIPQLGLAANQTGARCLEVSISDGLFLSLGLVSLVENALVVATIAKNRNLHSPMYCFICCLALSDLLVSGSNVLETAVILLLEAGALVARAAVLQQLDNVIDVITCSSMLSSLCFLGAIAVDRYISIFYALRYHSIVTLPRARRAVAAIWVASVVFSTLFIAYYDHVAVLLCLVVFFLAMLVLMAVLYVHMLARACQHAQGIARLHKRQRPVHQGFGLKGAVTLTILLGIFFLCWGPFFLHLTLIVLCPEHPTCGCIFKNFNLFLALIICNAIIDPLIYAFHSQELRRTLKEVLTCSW
# [30] = target: P2RY4 (human) (UniProt P51582)
# [31] = target: TACR3 (human) (UniProt P29371)
# Sequence of TACR3 (human) (P29371 whole entry): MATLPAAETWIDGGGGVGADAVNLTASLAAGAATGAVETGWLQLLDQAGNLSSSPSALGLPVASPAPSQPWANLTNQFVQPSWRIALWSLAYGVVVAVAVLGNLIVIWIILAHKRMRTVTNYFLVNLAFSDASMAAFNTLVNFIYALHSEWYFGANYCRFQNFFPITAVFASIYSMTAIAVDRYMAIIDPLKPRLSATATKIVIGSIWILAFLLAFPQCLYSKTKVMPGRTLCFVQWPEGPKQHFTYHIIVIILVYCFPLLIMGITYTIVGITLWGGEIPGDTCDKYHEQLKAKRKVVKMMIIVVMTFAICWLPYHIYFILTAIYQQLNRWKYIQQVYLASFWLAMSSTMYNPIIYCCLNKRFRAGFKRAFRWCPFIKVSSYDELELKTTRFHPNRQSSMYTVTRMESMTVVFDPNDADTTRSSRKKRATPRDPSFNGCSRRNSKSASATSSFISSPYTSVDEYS
# [32] = target: HRH4 (human) (UniProt Q9H3N8)
# [33] = target: AVPR1A (human) (UniProt P37288)
# [34] = target: (CR)L-RAMP2 (human) (UniProt Q16602)
# [35] = target: CXCR3 (human) (UniProt P49682)
# [36] = target: BDKRB2 (human) (UniProt P30411)
# [37] = target: HCRTR1 (human) (UniProt O43613)
# [38] = target: HCRTR2 (human) (UniProt O43614)
# [39] = target: GPR109A (human) (UniProt Q8TDS4)
# [40] = target: CRTH2 (human) (UniProt Q9Y5Y4)
# [41] = target: human cloned somatostatin receptor 5 (human) (UniProt P35346)
# [42] = target: CX3CR1 (human) (UniProt P49238)
# Sequence of CX3CR1 (human) (P49238 whole entry): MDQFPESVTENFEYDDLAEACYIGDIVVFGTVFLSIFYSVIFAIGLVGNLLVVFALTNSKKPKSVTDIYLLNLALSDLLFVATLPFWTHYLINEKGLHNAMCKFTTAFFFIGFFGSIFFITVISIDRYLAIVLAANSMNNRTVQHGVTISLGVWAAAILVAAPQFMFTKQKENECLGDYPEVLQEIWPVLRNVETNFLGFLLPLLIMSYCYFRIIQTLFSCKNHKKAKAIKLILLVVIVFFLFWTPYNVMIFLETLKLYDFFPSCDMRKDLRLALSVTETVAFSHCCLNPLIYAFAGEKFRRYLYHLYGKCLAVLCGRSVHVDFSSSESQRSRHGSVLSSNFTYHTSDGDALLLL
# [43] = target: FPRL1 (human) (UniProt P25090)
# Sequence of FPRL1 (human) (P25090 whole entry): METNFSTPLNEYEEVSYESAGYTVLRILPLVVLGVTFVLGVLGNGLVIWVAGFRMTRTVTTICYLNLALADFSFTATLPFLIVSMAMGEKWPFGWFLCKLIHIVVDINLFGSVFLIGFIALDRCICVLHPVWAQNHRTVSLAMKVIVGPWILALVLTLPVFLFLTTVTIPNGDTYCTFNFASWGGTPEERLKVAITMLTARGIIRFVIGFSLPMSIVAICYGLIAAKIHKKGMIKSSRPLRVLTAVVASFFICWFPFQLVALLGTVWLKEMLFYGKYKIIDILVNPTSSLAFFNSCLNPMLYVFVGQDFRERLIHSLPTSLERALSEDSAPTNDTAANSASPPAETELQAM
# [44] = target: CMKLR1 (human) (UniProt Q99788)
# [45] = target: ADRB1 (human) (UniProt P08588)
# Sequence of ADRB1 (human) (P08588 whole entry): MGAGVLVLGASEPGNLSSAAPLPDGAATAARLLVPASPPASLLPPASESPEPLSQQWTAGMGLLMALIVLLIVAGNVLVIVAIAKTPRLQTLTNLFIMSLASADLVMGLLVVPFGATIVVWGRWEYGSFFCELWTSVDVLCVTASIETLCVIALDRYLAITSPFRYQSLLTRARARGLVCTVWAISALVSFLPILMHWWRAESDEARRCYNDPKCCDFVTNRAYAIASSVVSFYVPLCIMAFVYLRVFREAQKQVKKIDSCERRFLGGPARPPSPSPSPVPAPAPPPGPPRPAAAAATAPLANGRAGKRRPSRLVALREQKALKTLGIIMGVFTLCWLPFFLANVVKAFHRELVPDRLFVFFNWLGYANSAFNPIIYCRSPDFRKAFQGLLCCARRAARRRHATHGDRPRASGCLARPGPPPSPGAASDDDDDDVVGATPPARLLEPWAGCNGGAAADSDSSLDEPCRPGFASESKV
# [46] = target: PROKR1 (human) (UniProt Q8TCW9)
# Sequence of PROKR1 (human) (Q8TCW9 whole entry): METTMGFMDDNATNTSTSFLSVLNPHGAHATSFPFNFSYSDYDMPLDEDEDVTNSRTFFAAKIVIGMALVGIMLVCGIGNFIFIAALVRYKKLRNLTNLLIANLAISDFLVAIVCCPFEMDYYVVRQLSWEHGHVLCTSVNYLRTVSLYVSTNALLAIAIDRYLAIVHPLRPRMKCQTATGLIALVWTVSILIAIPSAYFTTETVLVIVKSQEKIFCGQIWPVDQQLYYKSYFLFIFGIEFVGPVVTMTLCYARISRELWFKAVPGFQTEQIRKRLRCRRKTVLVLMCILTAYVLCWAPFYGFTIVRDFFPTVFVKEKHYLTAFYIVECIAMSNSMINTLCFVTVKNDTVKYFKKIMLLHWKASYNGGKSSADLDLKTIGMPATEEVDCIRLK
# [47] = target: HTR1E (human) (UniProt P28566)
# [48] = target: C3AR1 (human) (UniProt Q16581)
# Sequence of C3AR1 (human) (Q16581 whole entry): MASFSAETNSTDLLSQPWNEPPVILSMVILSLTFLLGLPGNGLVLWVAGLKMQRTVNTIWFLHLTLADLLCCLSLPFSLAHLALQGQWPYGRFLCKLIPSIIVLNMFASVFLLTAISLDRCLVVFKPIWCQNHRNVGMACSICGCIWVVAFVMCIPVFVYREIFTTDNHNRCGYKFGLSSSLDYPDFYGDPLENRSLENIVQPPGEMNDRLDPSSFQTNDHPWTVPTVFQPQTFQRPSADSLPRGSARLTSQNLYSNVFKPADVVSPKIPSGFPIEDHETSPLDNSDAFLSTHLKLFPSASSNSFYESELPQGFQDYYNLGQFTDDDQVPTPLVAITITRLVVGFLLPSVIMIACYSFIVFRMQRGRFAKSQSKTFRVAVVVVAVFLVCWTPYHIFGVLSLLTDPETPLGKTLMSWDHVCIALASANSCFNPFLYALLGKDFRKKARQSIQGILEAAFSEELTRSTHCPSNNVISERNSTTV
# [49] = target: HRH1 (human) (UniProt P35367)
# [50] = target: F2RL3 (human) (UniProt Q96RI0)
# [51] = target: CCR7 (human) (UniProt P32248)
# [52] = target: VIPR2 (human) (UniProt P41587)
# Sequence of VIPR2 (human) (P41587 24-438): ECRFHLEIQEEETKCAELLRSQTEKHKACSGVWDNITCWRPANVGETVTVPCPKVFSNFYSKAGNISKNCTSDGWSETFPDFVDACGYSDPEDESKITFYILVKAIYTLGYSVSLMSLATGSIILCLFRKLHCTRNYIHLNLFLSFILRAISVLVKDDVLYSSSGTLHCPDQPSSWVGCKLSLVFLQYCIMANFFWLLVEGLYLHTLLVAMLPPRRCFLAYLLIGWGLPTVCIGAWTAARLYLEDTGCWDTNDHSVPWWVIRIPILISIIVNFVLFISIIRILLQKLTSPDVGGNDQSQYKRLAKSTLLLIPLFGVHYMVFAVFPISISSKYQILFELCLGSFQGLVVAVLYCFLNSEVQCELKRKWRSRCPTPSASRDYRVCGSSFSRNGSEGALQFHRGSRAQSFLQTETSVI
# [53] = target: CCR3 (human) (UniProt P51677)
# [54] = target: PROKR2 (human) (UniProt Q8NFJ6)
# [55] = target: human cloned somatostatin receptor 3 (human) (UniProt P32745)
# Sequence of human cloned somatostatin receptor 3 (human) (P32745 whole entry): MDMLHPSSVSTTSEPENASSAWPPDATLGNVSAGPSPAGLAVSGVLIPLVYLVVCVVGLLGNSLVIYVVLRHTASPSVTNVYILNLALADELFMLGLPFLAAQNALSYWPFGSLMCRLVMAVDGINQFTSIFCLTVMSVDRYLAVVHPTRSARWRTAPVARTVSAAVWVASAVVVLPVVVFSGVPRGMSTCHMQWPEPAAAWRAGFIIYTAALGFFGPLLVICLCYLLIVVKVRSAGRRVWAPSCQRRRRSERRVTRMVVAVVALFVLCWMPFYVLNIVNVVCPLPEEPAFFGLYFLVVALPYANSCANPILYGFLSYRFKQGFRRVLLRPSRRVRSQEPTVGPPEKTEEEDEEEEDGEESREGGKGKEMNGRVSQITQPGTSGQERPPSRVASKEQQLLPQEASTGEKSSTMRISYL
# [56] = target: TSHR(L) (human) (UniProt P16473)
# Sequence of TSHR(L) (human) (P16473 21-764): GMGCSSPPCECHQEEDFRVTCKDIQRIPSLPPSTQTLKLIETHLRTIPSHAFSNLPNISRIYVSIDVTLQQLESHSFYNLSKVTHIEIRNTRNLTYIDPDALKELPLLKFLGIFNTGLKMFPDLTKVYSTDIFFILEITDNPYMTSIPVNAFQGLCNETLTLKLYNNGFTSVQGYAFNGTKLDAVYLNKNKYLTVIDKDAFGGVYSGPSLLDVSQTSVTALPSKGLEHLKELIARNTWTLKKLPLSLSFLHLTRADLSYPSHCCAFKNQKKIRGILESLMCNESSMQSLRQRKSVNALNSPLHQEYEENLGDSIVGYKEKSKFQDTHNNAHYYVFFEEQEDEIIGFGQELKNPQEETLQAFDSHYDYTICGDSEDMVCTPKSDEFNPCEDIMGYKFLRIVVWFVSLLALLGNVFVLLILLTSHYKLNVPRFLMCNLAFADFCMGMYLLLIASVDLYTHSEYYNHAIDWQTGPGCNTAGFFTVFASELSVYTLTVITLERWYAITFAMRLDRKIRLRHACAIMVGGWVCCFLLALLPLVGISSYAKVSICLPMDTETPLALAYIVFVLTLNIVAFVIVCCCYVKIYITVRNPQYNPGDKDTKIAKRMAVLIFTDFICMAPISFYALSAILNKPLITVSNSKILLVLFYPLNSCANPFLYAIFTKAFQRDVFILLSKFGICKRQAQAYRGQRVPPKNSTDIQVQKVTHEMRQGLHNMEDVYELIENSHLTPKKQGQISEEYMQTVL
# [57] = target: (CR)R-RAMP3 (human) (UniProt P30988)
binder,measurement,setting,value
{DOTA}-[dF]RCF[dW]KTF[N(2-mercaptoethyl)Gly]-NH2 (disulfide 3-9; also: Ga complex of DOTA) [SEQ ID NO: 4],"% Activity (agonist mode, 1 µM)",[1],0%
same,"% Activity (agonist mode, 1 µM)",[2],1%
same,"% Activity (agonist mode, 1 µM)",[3],3%
same,"% Activity (agonist mode, 1 µM)",[4],-2%
same,"% Activity (agonist mode, 1 µM)",[5],0%
same,"% Activity (agonist mode, 1 µM)",[6],0%
same,"% Activity (agonist mode, 1 µM)",[7],0%
same,"% Activity (agonist mode, 1 µM)",[8],-2%
same,"% Activity (agonist mode, 1 µM)",[9],0%
same,"% Activity (agonist mode, 1 µM)",[10],0%
same,"% Activity (agonist mode, 1 µM)",[11],-4%
same,"% Activity (agonist mode, 1 µM)",[12],-1%
same,"% Activity (agonist mode, 1 µM)",[13],10%
same,"% Activity (agonist mode, 1 µM)",[14],-2%
same,"% Activity (agonist mode, 1 µM)",[15],0%
same,"% Activity (agonist mode, 1 µM)",[16],-2%
same,"% Activity (agonist mode, 1 µM)",[17],-1%
same,"% Activity (agonist mode, 1 µM)",[18],1%
same,"% Activity (agonist mode, 1 µM)",[19],0%
same,"% Activity (agonist mode, 1 µM)",[20],-1%
same,"% Activity (agonist mode, 1 µM)",[21],1%
same,"% Activity (agonist mode, 1 µM)",[22],0%
same,"% Activity (agonist mode, 1 µM)",[23],1%
same,"% Activity (agonist mode, 1 µM)",[24],0%
same,"% Activity (agonist mode, 1 µM)",[25],9%
same,"% Activity (agonist mode, 1 µM)",[26],3%
same,"% Activity (agonist mode, 1 µM)",[27],3%
same,"% Activity (agonist mode, 1 µM)",[28],-2%
same,"% Activity (agonist mode, 1 µM)",[29],1%
same,"% Activity (agonist mode, 1 µM)",[30],1%
same,"% Activity (agonist mode, 1 µM)",[31],1%
same,"% Activity (agonist mode, 1 µM)",[32],-2%
same,"% Activity (agonist mode, 1 µM)",[33],0%
same,"% Activity (agonist mode, 1 µM)",[34],3%
same,"% Activity (agonist mode, 1 µM)",[35],-1%
same,"% Activity (agonist mode, 1 µM)",[36],0%
same,"% Activity (agonist mode, 1 µM)",[37],0%
same,"% Activity (agonist mode, 1 µM)",[38],0%
same,"% Activity (agonist mode, 1 µM)",[39],0%
same,"% Activity (agonist mode, 1 µM)",[40],-1%
same,"% Activity (agonist mode, 1 µM)",[41],16%
same,"% Activity (agonist mode, 1 µM)",[42],0%
same,"% Activity (agonist mode, 1 µM)",[43],0%
same,"% Activity (agonist mode, 1 µM)",[44],0%
same,"% Activity (agonist mode, 1 µM)",[45],1%
same,"% Activity (agonist mode, 1 µM)",[46],0%
same,"% Activity (agonist mode, 1 µM)",[47],1%
same,"% Activity (agonist mode, 1 µM)",[48],0%
same,"% Activity (agonist mode, 1 µM)",[49],-1%
same,"% Activity (agonist mode, 1 µM)",[50],2%
same,"% Activity (agonist mode, 1 µM)",[51],1%
same,"% Activity (agonist mode, 1 µM)",[52],-1%
same,"% Activity (agonist mode, 1 µM)",[53],2%
same,"% Activity (agonist mode, 1 µM)",[54],2%
same,"% Activity (agonist mode, 1 µM)",[55],200%
same,Cellular Internalization EC50 (β-Arrestin Luminescence Assay),[55],16 nM
same,Efficacy - maximal response,[55],75200 RLU
same,intensity of beta-arrestin response against SRIF-14,[55],2 fold
same,"% Activity (agonist mode, 1 µM)",[56],-1%
same,"% Activity (agonist mode, 1 µM)",[57],-13%
